This note sets out measurements from patent US20250368707A1 (UNIVERSITY OF MIAMI, published 2025).

The data set deals with the molecule itself. Description: SEC-MALS under native conditions in PBS; self-association (non-covalent dimer). Background: Size exclusion chromatography separates by hydrodynamic size, large species first.

B1: mouse IL-2-10/CD25 (mIL2-linker-CD25-linker-IL10) (other)
chain: APTSSPTSSPTSSSTAEAQQQQQQQQHLEQLLMDLQELLSRMENYRNLKLPRMLTFKFYLPKQATELKDLQCLEDELGPLRHVLDLTQSKSFQLEDAENFISNIRVTVVKLKGSDNTFECQFDDESATVVDFLRRWIAFCQSIISTSPQGGGSGGGSGGGSELCLYDPPEVPNATFKALSYKNGTILNCECKRGFRRLKELVYMRCLGNSWSSNCQCTSNSHDKSRKQVTAQLEHQKEQQTTTDMQKPTQSMHQENLTGHCREPPPWKHEDSKRIYHFVEGQSVHYECIPGYKALQRGPAISICKMKCGKTGWTQPQLTCVDEREHHRFLASEESQGSRNSSPESETSCPITTTDFPQPTETTAMTETFVLTMEYKGGGSGGGSGGGSSRGQYSREDNNCTHFPVGQSHMLLELRTAFSQVKTFFQTKDQLDNILLTDSLMQDFKGYLGCQALSEMIQFYLVEVMPQAEKHGPEIKEHLNSLGEKLKTLRMRLRRCHRFLPCENKSKAVEQVKSDFNKLQDQGVYKAMNEFDIFINCIEAYMMIKMKSGGHHHHHH
notes: Under native conditions it is predominately a non-covalent dimer; also called mIL-2-10/CD25; mIL2-10/CD25
As to B1, the binding result was “binds”.
